Each block holds one binder with its values, some of them ahead of it.
Columns and labels:
human serum albumin [1] = molecular target: T1, human serum albumin (human, UniProt P02768 25-609); assay: SPR, albumin on chip, pH 5.5;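 also: albumins amine-coupled onto carboxyl SPR chips, with each analyte also run over a hen egg lysozyme surface as negative control, Kd derived from binding kinetics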
T1 construct: also called HSA
Experimental: (§1) Binding kinetics were determined using SPR. The serum albumins or negative control protein were immobilised to COOH₂ chips by amine coupling using optimised buffer conditions as follows: —Human serum albumin (HSA) and mouse serum albumin (MSA) were immobilised in sodium acetate pH5 buffer. Rat serum albumin (RSA) and cynomolgous serum albumin (CSA) in sodium acetate pH 4.5 buffer and the negative control hen egg lysozyme (HEL) protein was immobilised in sodium acetate pH 5.5 buffer.
(§2) For each analyte test experiment, binding to the chosen serum albumin protein was assayed alongside the negative control protein (HEL).

rat serum albumin [2] = molecular target: T2, rat serum albumin (rat, UniProt P02770 25-608); assay: SPR, albumin on chip, pH 5.5;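 also: albumins amine-coupled onto carboxyl SPR chips, with each analyte also run over a hen egg lysozyme surface as negative control, Kd derived from binding kinetics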
T2 construct: also called RSA
T2 sequence (P02770 25-608 limits assumed): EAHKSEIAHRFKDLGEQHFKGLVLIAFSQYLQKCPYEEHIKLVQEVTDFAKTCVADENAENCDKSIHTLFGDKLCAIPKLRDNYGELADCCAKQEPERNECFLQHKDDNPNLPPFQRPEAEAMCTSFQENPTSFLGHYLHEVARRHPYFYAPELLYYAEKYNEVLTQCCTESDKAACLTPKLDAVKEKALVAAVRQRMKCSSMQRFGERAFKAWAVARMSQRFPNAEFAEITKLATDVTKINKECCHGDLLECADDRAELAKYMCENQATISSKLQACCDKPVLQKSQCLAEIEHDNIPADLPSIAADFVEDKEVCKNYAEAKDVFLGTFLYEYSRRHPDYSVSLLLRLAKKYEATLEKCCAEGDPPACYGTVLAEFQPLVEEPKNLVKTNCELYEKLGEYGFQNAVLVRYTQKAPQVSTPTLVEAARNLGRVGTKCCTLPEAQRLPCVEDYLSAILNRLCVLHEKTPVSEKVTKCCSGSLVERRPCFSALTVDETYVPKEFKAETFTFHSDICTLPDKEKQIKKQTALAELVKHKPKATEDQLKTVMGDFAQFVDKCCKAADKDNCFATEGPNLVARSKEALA
Experimental: as §1, §2

mouse serum albumin [3] = molecular target: T3, mouse serum albumin (mouse, UniProt P07724 25-608); assay: SPR, albumin on chip, pH 5.5;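 also: albumins amine-coupled onto carboxyl SPR chips, with each analyte also run over a hen egg lysozyme surface as negative control, Kd derived from binding kinetics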
T3 construct: also called MSA
T3 sequence (P07724 25-608 limits assumed): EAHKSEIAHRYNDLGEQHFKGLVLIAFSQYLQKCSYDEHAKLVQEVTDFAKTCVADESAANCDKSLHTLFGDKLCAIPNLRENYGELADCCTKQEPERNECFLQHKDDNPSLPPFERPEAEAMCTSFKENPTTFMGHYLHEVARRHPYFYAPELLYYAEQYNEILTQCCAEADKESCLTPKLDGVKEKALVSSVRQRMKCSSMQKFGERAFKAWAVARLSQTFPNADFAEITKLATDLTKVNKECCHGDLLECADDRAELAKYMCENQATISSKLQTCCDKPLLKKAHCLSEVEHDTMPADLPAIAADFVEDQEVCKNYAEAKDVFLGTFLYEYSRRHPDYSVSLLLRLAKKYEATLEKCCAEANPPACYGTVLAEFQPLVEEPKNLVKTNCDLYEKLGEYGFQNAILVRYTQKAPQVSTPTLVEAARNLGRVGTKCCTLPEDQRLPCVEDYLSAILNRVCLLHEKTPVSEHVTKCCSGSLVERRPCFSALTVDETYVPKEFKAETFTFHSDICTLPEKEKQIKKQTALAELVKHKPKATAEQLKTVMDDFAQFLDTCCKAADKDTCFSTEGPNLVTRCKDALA
Experimental: as §1, §2

[4] = molecular target: T4, cynomolgous serum albumin (cynomolgous, UniProt A2V9Z4 25-608); assay: SPR, albumin on chip, pH 5.5;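 also: albumins amine-coupled onto carboxyl SPR chips, with each analyte also run over a hen egg lysozyme surface as negative control, Kd derived from binding kinetics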
T4 construct: also called CSA; Cyano
T4 sequence (A2V9Z4 25-608 limits assumed): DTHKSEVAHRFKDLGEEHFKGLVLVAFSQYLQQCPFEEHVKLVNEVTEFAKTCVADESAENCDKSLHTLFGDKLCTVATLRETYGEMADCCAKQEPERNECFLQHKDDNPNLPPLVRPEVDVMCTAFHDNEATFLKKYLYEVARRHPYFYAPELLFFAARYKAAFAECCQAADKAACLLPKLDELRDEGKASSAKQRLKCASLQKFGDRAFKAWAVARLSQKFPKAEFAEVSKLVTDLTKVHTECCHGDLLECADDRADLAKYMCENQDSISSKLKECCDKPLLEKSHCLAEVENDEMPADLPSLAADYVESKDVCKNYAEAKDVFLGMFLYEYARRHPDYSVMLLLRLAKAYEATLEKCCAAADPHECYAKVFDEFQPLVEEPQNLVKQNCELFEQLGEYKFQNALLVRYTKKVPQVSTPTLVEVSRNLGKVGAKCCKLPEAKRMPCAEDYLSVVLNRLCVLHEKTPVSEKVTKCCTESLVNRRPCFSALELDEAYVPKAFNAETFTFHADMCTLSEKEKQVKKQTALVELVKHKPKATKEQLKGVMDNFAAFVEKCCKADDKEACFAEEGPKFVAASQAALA
Experimental: as §1, §2

human serum albumin [5] = molecular target: T1, human serum albumin; assay: SPR, albumin on chip, pH 7.4;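 also: Human, mouse, rat and cynomolgus serum albumins amine-coupled to carboxyl sensor chips, with a hen egg lysozyme surface measured in parallel as negative control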
Experimental: as §1, §2

rat serum albumin [6] = molecular target: T2, rat serum albumin; assay: SPR, albumin on chip, pH 7.4;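 also: Human, mouse, rat and cynomolgus serum albumins amine-coupled to carboxyl sensor chips, with a hen egg lysozyme surface measured in parallel as negative control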
Experimental: as §1, §2

mouse serum albumin [7] = molecular target: T3, mouse serum albumin; assay: SPR, albumin on chip, pH 7.4;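 also: Human, mouse, rat and cynomolgus serum albumins amine-coupled to carboxyl sensor chips, with a hen egg lysozyme surface measured in parallel as negative control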
Experimental: as §1, §2

[8] = molecular target: T4, cynomolgous serum albumin; assay: SPR, albumin on chip, pH 7.4;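 also: Human, mouse, rat and cynomolgus serum albumins amine-coupled to carboxyl sensor chips, with a hen egg lysozyme surface measured in parallel as negative control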
Experimental: as §1, §2

[9] = molecular target: T5, human ROR1-hFc fusion protein (extracellular domain) (human); assay: SPR, human ROR1 ECD-Fc on chip;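 also: SPR binding kinetics of VNAR and VNAR-Fc molecules run at a range of concentrations over immobilised target, rate and affinity constants fitted with QDat software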
T5 construct: Whole entry 'human ROR1-Fc (CHO)'; also called hROR1; huROR1-Fc
T5 sequence (chain, as listed by the source limits assumed): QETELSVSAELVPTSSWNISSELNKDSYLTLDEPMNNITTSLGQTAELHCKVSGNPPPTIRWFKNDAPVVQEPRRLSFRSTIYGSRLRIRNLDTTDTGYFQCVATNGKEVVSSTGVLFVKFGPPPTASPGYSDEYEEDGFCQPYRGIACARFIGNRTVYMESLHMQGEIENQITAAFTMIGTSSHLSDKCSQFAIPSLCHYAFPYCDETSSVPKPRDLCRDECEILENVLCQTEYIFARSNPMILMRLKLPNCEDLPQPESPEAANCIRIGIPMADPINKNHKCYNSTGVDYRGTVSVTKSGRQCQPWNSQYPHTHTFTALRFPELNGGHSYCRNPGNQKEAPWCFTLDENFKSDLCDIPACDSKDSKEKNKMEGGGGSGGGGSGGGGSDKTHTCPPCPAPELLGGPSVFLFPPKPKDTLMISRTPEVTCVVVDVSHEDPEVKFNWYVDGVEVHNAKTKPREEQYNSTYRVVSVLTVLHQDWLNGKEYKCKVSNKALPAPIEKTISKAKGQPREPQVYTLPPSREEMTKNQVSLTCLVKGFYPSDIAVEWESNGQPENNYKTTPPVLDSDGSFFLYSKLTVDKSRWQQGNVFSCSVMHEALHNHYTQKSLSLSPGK
Experimental: Binding kinetics were determined using a Pioneer Surface Plasmon Resonance (SPR) instrument (SensiQ/Pall ForteBio). […] VNARs and VNAR-Fc molecules were tested at various concentrations and the Ka (M⁻¹s⁻¹), Kd (s⁻¹) and KD (nM) values were determined using QDat software (SensiQ/Pall ForteBio).
Thermal stability assays used Applied Biosystems StepOne Real Time PCR system with the Protein Thermal Shift™ dye kit (Thermo). The assay mix was set up so that the protein was at a final concentration of 20 OA in 20 μL. 5 μL of Thermal Shift™ buffer was added alongside 2.5 uL 8× Thermal Shift™ Dye. Assays were run using the StepOne software and data analysed using Protein Thermal Shift™ software. All data are from first derivative analysis.

[10] = molecular target: T6, recombinant human ROR1 (hROR1), construct not stated (human, UniProt Q01973 30-403, limits assumed); assay: SPR, hROR1 on chip
T6 sequence (Q01973 30-403 limits assumed): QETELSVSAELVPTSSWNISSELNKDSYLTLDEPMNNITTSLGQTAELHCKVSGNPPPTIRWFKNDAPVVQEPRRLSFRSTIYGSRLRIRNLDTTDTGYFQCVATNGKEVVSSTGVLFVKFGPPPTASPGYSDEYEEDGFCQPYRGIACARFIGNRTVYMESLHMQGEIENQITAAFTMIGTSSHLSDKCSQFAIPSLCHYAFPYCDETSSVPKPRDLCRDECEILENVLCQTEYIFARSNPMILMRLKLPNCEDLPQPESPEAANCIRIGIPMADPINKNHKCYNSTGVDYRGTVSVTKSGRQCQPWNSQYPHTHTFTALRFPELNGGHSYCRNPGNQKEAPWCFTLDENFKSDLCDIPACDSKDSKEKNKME

[11] = molecular target: T6, recombinant human ROR1 (hROR1), …; assay: SPR, hROR1 on chip; remark: listed apart in the source
Experimental: (§3) Competition of binding studies were completed using SPR. […] FC2 was used as the reference channel. […] Binding kinetics were determined using QDat software.

[12] = molecular target: T6, recombinant human ROR1 (hROR1), …; assay: SPR, hROR1 on chip with competitor B1 pre-captured
Experimental: as §3

[13] = molecular target: T6, recombinant human ROR1 (hROR1), …; assay: SPR, hROR1 on chip with competitor P3A1 dimer pre-captured
Experimental: as §3

Kd (human serum albumin [1]): 0.91 nM | Kd (rat serum albumin [2]): 4.39 nM | Kd (mouse serum albumin [3]): 4.8 nM | Kd [4]: 1.11 nM | Kd (human serum albumin [5]): 0.636 nM | Kd (rat serum albumin [6]): 2.97 nM | Kd (mouse serum albumin [7]): 1.9 nM | Kd [8]: 3.36 nM
B1: BA11 (humanised HSA-binding VNAR) (VNAR)
VNAR: TRVDQSPSSLSASVGDRVTITCVLTDTSYPLYSTYWYRKNPGSSNKEQISISGRYSESVNKGTKSFTLTISSLQPEDSATYYCRAMSTNIWTGDGAGTKVEIK
notes: VNAR

Kd (human serum albumin [1]): 1.96 nM | Kd (rat serum albumin [2]): 3.21 nM | Kd (mouse serum albumin [3]): 3.77 nM | Kd (human serum albumin [5]): 0.756 nM | Kd (rat serum albumin [6]): 3.37 nM | Kd [8]: 2.1 nM
B2: BA11 C-terminal cysteine derivative (VNAR)
VNAR: TRVDQSPSSLSASVGDRVTITCVLTDTSYPLYSTYWYRKNPGSSNKEQISISGRYSESVNKGTKSFTLTISSLQPEDSATYYCRAMSTNIWTGDGAGTKVEIK
modifications: additional C-terminal cysteine (intein cleavage with cysteine)
notes: also called BA11-cys

Kd (human serum albumin [1]): 3.16 nM | Kd (rat serum albumin [2]): 7.24 nM | Kd (mouse serum albumin [3]): 13.6 nM | Kd [4]: 8.21 nM | Kd (human serum albumin [5]): 1.1 nM | Kd (rat serum albumin [6]): 4.78 nM | Kd (mouse serum albumin [7]): 5.06 nM | Kd [8]: 3.68 nM
B3: BA11-C terminal cysteine-maleimide-peg-fluorescein (VNAR)
VNAR: TRVDQSPSSLSASVGDRVTITCVLTDTSYPLYSTYWYRKNPGSSNKEQISISGRYSESVNKGTKSFTLTISSLQPEDSATYYCRAMSTNIWTGDGAGTKVEIK
modifications: C-terminal cysteine conjugated to maleimide-peg-fluorescein
notes: also called BA11-cys-mal-Fl

Kd (human serum albumin [1]): 1.3 nM | Kd (rat serum albumin [2]): 5.93 nM | Kd (mouse serum albumin [3]): 7.44 nM | Kd [4]: 5.54 nM | Kd (human serum albumin [5]): 0.677 nM | Kd (rat serum albumin [6]): 5.72 nM | Kd (mouse serum albumin [7]): 4.24 nM | Kd [8]: 1.75 nM
B4: BA11-oxime-fluorescein (VNAR)
VNAR: TRVDQSPSSLSASVGDRVTITCVLTDTSYPLYSTYWYRKNPGSSNKEQISISGRYSESVNKGTKSFTLTISSLQPEDSATYYCRAMSTNIWTGDGAGTKVEIK
modifications: C-terminal oxime-linked benzaldehyde-peg-fluorescein

Kd [9]: 0.77 nM | koff [9]: 5.54e-05 s⁻¹ | kon [9]: 77400 M⁻¹ s⁻¹
B7: B1 humanised V7 with His6myc tag (VNAR)
VNAR: ASVDQSPSSASASVGDRLTITCVVTGANYGLAATYWYRKNPGSSNQERISISGRYSESVNKRTMSFTLTISSLQPEDSATYYCKAYPWGAGAPWLVQWYDGAGTKLEVKQ
notes: VNAR; also called B1V7

Kd [9]: 82.8 nM | koff [9]: 0.0162 s⁻¹ | kon [9]: 220000 M⁻¹ s⁻¹
B8: B1 G1 (humanised/grafted B1) with His6myc tag (VNAR)
VNAR: TRVDQSPSSLSASVGDRVTITCVLTGANYGLASTYWYRKNPGSSNKEQISISGRYSESVNKGTKSFTLTISSLQPEDSATYYCRAYPWGAGAPWLVQWYDGAGTKVEIKQ
notes: VNAR

Kd [9]: 0.74 nM | koff [9]: 3.85e-05 s⁻¹ | kon [9]: 52000 M⁻¹ s⁻¹
B9: B1 humanised V5 with His6myc tag (VNAR)
VNAR: ASVDQSPSSLSASVGDRVTITCVVTGANYGLAATYWYRKNPGSSNQERISISGRYSESVNKRTMSFTLTISSLQPEDSATYYCKAYPWGAGAPWLVQWYDGAGTKVEIKQ
notes: VNAR; also called B1V5

Kd [9]: 0.77 nM | koff [9]: 0.00119 s⁻¹ | kon [9]: 1.88e+06 M⁻¹ s⁻¹
B11: P3A1 G2 dimer (VNAR)
chain: TRVDQSPSSLSASVGDRVTITCVLTDTSYGLYSTYWYRKNPGTTDWERMSIGGRYSESVNKGAKSFTLTISSLQPEDSATYYCRAREARHPWLRQWYDGAGTKVEIKGGGGSGGGGSGGGGSGGGGSGGGGSTRVDQSPSSLSASVGDRVTITCVLTDTSYGLYSTYWYRKNPGTTDWERMSIGGRYSESVNKGAKSFTLTISSLQPEDSATYYCRAREARHPWLRQWYDGAGTKVEIKQASGAHHHHHHGAEFEQKLISEEDL
notes: humanised VNAR dimer

Kd [9]: 0.43 nM | koff [9]: 0.00147 s⁻¹ | kon [9]: 4.3e+06 M⁻¹ s⁻¹
B15: P3A1 G1 dimer (VNAR)
chain: TRVDQSPSSLSASVGDRVTITCVLTDTSYGLYSTYWYRKNPGSSNKEQISISGRYSESVNKGTKSFTLTISSLQPEDSATYYCRAREARHPWLRQWYDGAGTKVEIKGGGGSGGGGSGGGGSGGGGSGGGGSTRVDQSPSSLSASVGDRVTITCVLTDTSYGLYSTYWYRKNPGSSNKEQISISGRYSESVNKGTKSFTLTISSLQPEDSATYYCRAREARHPWLRQWYDGAGTKVEIKQASGAHHHHHHGAEFEQKLISEEDL
notes: humanised VNAR dimer

Kd [9]: 26.2 nM | koff [9]: 0.016 s⁻¹ | kon [9]: 609000 M⁻¹ s⁻¹
B17: D3 ADV2 dimer (VNAR)
chain: TRVDQSPSSLSASVGDRVTITCVLTDTSYGLYSTSWFRKNPGTTDWERMSIGGRYSESVNKGAKSFTLTISSLQPEDSATYYCKAQSGMAISTGSGHGYNWYDGAGTKVEIKGGGGSGGGGSGGGGSGGGGSGGGGSTRVDQSPSSLSASVGDRVTITCVLTDTSYGLYSTSWFRKNPGTTDWERMSIGGRYSESVNKGAKSFTLTISSLQPEDSATYYCKAQSGMAISTGSGHGYNWYDGAGTKVEIKQASGAHHHHHHGAEFEQKLISEEDL
notes: Listing names it 'D3V2 dimer'; also called D3V2 dimer

Kd [10]: 0.21 nM | koff [10]: 0.000211 s⁻¹ | kon [10]: 979000 M⁻¹ s⁻¹ | Kd [11]: 0.233 nM | koff [11]: 0.000342 s⁻¹ | kon [11]: 1.47e+06 M⁻¹ s⁻¹ | Kd [12]: 0.101 nM | koff [12]: 8.47e-05 s⁻¹ | kon [12]: 835000 M⁻¹ s⁻¹ | Kd [13]: 0.231 nM | koff [13]: 0.000322 s⁻¹ | kon [13]: 1.39e+06 M⁻¹ s⁻¹
B18: ROR1 2A2 mAb (BioLegend) (antibody, V domains shown)
VH: QVQLQQSGAELVRPGASVTLSCKASGYTFSDYEMHWVIQTPVHGLEWIGAIDPETGGTAYNQKFKGKAILTADKSSSTAYMELRSLTSEDSAVYYCTGYYDYDSFTYWGQGTLVTVSA
VL: DIVMTQSQKIMSTTVGDRVSITCKASQNVDAAVAWYQQKPGQSPKLLIYSASNRYTGVPDRFTGSGSGTDFTLTISNMQSEDLADYFCQQYDIYPYTFGGGTKLEIK

The remaining lines, values behind:

B5: BA11-aminoxy (VNAR)
VNAR: TRVDQSPSSLSASVGDRVTITCVLTDTSYPLYSTYWYRKNPGSSNKEQISISGRYSESVNKGTKSFTLTISSLQPEDSATYYCRAMSTNIWTGDGAGTKVEIK
modifications: C-terminal aminoxy (intein cleavage with dioxyamine)
Kd (mouse serum albumin [3]): 21.2 nM | Kd (human serum albumin [5]): 1.12 nM | Kd (rat serum albumin [6]): 10.8 nM | Kd (mouse serum albumin [7]): 8.77 nM | Kd [8]: 7.97 nM

B6: B1 G2 (humanised/grafted B1) with His6myc tag (VNAR)
VNAR: TRVDQSPSSLSASVGDRVTITCVLTGANYGLASTYWYRKNPGSSNQERISISGRYSESVNKRTMSFTLTISSLQPEDSATYYCRAYPWGAGAPWLVQWYDGAGTKVEIKQ
notes: VNAR
Kd [9]: 45.9 nM | koff [9]: 0.0079 s⁻¹ | kon [9]: 185000 M⁻¹ s⁻¹

B10: P3A1 V1 dimer (VNAR)
chain: TRVDQSPSSLSASVGDRVTITCVLTDTSYGLYSTSWFRKNPGTTDWERMSIGGRYVESVNKGAKSFTLTISSLQPEDFATYYCKAREARHPWLRQWYDGAGTKVEIKGGGGSGGGGSGGGGSGGGGSGGGGSTRVDQSPSSLSASVGDRVTITCVLTDTSYGLYSTSWFRKNPGTTDWERMSIGGRYVESVNKGAKSFTLTISSLQPEDFATYYCKAREARHPWLRQWYDGAGTKVEIKQASGAHHHHHHGAEFEQKLISEEDL
Kd [9]: 0.18 nM | koff [9]: 0.000846 s⁻¹ | kon [9]: 4.78e+06 M⁻¹ s⁻¹

B12: D3 humanised EL V2 with His6myc tag (VNAR)
VNAR: ASVNQSPSSLSASVGDRVTITCVLTDTSYGLYSTSWFRKNPGTTDWERMSIGGRYVESVNKRAKSFTLTISSLQPEDFATYYCKAQSGMAISTGSGHGYNWYDGAGTKVEIKQ
notes: VNAR; also called D3 EL V2
Kd [9]: 18.9 nM | koff [9]: ~0.0163 s⁻¹ | kon [9]: 1.85e+06 M⁻¹ s⁻¹

B13: D3 humanised EL V4 with His6myc tag (VNAR)
VNAR: ASVNQSPSSLSASVGDRVTITCVLTDTSYGLYSTSWYQQKPGTTDWERMSIGGRYVESVNKRAKSFTLTISSLQPEDFATYYCKAQSGMAISTGSGHGYNWYDGAGTKVEIKQ
notes: VNAR; also called D3 EL V4
Kd [9]: 58.5 nM | koff [9]: ~0.0545 s⁻¹ | kon [9]: 1.38e+06 M⁻¹ s⁻¹

B14: D3 humanised ADV2 with His6myc tag (VNAR)
VNAR: TRVDQSPSSLSASVGDRVTITCVLTDTSYGLYSTSWFRKNPGTTDWERMSIGGRYSESVNKGAKSFTLTISSLQPEDSATYYCKAQSGMAISTGSGHGYNWYDGAGTKVEIKQ
notes: VNAR; also called D3 AD V2
Kd [9]: 51.6 nM | koff [9]: 0.00236 s⁻¹ | kon [9]: 45800 M⁻¹ s⁻¹

B16: D3 ADV1 dimer (VNAR)
chain: ASVNQSPSSLSASVGDRVTITCVLTDTSYGLYSTSWFRKNPGTTDWERMSIGGRYSESVNKGAKSFTLTISSLQPEDSATYYCKAQSGMAISTGSGHGYNWYDGAGTKVEIKGGGGSGGGGSGGGGSGGGGSGGGGSASVNQSPSSLSASVGDRVTITCVLTDTSYGLYSTSWFRKNPGTTDWERMSIGGRYSESVNKGAKSFTLTISSLQPEDSATYYCKAQSGMAISTGSGHGYNWYDGAGTKVEIKQASGAHHHHHHGAEFEQKLISEEDL
notes: Listing names it 'D3V1 dimer'; also called D3V1 dimer
Kd [9]: 8.92 nM | koff [9]: 0.00567 s⁻¹ | kon [9]: 636000 M⁻¹ s⁻¹

B19: UC961 based mAb (antibody, human IgG1, kappa, V domains shown)
VH: QVQLQESGPGLVKPSQTLSLTCTVSGYAFTAYNIHWVRQAPGQGLEWMGSFDPYDGGSSYNQKFKDRLTISKDTSKNQVVLTMTNMDPVDTATYYCARGWYYFDYWGHGTLVTVSS
VL: DIVMTQTPLSLPVTPGEPASISCRASKSISKYLAWYQQKPGQAPRLLIYSGSTLQSGIPPRFSGSGTGTDFTLTINNIESEDAAYYFCQQHDESPYTFGEGTKVEIKR
notes: also called UC961-like; mAb based on UC-961
Kd [11]: 0.078 nM | koff [11]: 0.000451 s⁻¹ | kon [11]: 5.77e+06 M⁻¹ s⁻¹ | Kd [13]: 0.081 nM | koff [13]: 0.000444 s⁻¹ | kon [13]: 5.48e+06 M⁻¹ s⁻¹

— patent US20230203155A1 (ALMAC DISCOVERY, published 2023)
